# Starred links: 1 amine or outer side, 2 acyl side, 3 side chain; linkers in the order of their positions; H or OH if unused. Positions of bridges follow the written chain, without caps; N, C: chain ends. Non-standard residues stand in square brackets, D forms with d. Primed or numbered codes have the meaning given here. *: point of attachment. PyrS2(3) = (S)-3-amino-1-((pent-4-en-1-yloxy)carbonyl)pyrrolidine-3-carboxylic acid, stapling residue, C=CCCCOC(=O)N1CC[C@@](N[*:1])(C(=O)[*:2])C1; PyrS2″ = (S)-3-amino-1-((pent-4-en-1-yloxy)carbonyl)pyrrolidine-3-carboxylic acid (stapling residue), C=CCCCOC(=O)N1CC[C@@](N[*:1])(C(=O)[*:2])C1; B5(4) = 2,2-bis(4-pentenyl)glycine = 2-amino-2-(pent-4-en-1-yl)hept-6-enoic acid (stitching residue), C=CCCCC(CCCC=C)(N[*:1])C(=O)[*:2]; TfeGA = (S)-2-amino-3-((carboxymethyl)(2,2,2-trifluoroethyl)amino)propanoic acid, O=C([C@H](CN(CC(=O)[*:3])CC(F)(F)F)N[*:1])[*:2]; B5(3) = 2,2-bis(4-pentenyl)glycine (stitching residue), C=CCCCC(CCCC=C)(N[*:1])C(=O)[*:2]; B5″ = 2,2-bis(4-pentenyl)glycine, stitching residue, C=CCCCC(CCCC=C)(N[*:1])C(=O)[*:2]; Phe(2-Cl) = N[C@@H](Cc1ccccc1Cl)C(=O)O; Bta = N[C@@H](Cc1csc2ccccc12)C(=O)O; αAllylPro = C=CC[C@@]1(C(=O)O)CCCN1; tBuAla = CC(C)(C)C[C@H](N)C(=O)O; 3Thi = N[C@@H](Cc1ccsc1)C(=O)O; Leu(ol) = CC(C)C[C@H](N)CO; Alaol = C[C@@H](CO)N*
# Assays:
# [1] = target: T1, beta-catenin (Homo sapiens (Human), UniProt P35222 1-781); assay: cell-based or functional assay
# T1 sequence: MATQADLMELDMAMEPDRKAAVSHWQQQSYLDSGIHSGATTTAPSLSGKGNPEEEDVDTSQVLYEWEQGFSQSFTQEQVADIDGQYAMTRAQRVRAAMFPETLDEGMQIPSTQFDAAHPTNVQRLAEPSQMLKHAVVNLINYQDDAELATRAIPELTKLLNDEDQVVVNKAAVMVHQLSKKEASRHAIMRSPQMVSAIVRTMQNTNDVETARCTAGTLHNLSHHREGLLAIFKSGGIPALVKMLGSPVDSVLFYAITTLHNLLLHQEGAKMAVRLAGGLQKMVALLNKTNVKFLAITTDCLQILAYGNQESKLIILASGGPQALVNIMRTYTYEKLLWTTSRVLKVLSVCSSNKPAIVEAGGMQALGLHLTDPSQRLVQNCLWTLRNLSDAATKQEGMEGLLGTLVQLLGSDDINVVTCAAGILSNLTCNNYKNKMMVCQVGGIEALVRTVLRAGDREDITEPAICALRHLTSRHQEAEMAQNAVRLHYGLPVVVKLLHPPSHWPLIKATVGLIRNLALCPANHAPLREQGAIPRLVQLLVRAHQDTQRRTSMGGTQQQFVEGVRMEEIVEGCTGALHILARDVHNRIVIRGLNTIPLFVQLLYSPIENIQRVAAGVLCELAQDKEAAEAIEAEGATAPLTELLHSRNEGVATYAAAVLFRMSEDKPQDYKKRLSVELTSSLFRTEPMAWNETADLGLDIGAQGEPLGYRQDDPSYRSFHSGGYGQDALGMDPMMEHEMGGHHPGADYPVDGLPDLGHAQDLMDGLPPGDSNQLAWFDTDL
# [2] = target: T2, beta-catenin (Homo sapiens (Human), UniProt P35222 2-781); assay: cell-based or functional assay
# T2 sequence: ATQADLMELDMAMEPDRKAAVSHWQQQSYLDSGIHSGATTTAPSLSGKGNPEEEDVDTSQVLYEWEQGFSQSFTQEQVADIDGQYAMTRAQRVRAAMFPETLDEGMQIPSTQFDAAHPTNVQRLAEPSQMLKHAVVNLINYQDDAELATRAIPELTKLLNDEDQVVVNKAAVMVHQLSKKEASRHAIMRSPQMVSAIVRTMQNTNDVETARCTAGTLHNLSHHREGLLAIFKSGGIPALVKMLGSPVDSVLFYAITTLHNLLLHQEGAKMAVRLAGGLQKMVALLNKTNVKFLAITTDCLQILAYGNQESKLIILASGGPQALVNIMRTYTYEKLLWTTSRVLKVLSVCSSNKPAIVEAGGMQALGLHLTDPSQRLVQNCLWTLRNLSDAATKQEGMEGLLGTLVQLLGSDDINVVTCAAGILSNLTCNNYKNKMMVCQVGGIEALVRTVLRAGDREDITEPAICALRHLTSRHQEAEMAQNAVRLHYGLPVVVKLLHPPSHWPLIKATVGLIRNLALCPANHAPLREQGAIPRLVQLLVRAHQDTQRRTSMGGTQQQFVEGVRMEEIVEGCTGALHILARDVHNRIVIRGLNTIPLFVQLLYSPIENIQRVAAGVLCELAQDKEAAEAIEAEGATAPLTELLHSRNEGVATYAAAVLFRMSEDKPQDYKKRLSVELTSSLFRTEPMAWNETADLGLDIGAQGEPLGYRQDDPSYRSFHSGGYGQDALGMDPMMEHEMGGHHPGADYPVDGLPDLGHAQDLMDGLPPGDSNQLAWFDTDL
Binder,"DLD1 TCF c2 BrightGlo % Inhibition, 0.625 uM, replicate 1 [1] [%]","DLD1 TCF c2 BrightGlo % Inhibition, 0.625 uM, replicate 2 [1] [%]","DLD1 TCF c2 BrightGlo % Inhibition, 0.625 uM, replicate 3 [1] [%]","DLD1 TCF c2 BrightGlo % Inhibition, 1.25 uM, replicate 1 [1] [%]","DLD1 TCF c2 BrightGlo % Inhibition, 1.25 uM, replicate 2 [1] [%]","DLD1 TCF c2 BrightGlo % Inhibition, 1.25 uM, replicate 3 [1] [%]","DLD1 TCF c2 BrightGlo % Inhibition, 2.5 uM, replicate 1 [1] [%]","DLD1 TCF c2 BrightGlo % Inhibition, 2.5 uM, replicate 2 [1] [%]","DLD1 TCF c2 BrightGlo % Inhibition, 2.5 uM, replicate 3 [1] [%]","DLD1 TCF c2 BrightGlo % Inhibition, 5 uM, replicate 1 [1] [%]","DLD1 TCF c2 BrightGlo % Inhibition, 5 uM, replicate 2 [1] [%]","DLD1 TCF c2 BrightGlo % Inhibition, 5 uM, replicate 3 [1] [%]","DLD1 TCF c2 BrightGlo % Inhibition, 10 uM, replicate 1 [1] [%]","DLD1 TCF c2 BrightGlo % Inhibition, 10 uM, replicate 2 [1] [%]","DLD1 TCF c2 BrightGlo % Inhibition, 10 uM, replicate 3 [1] [%]","DLD1 TCF c2 BrightGlo % Inhibition, 20 uM, replicate 1 [1] [%]","DLD1 TCF c2 BrightGlo % Inhibition, 20 uM, replicate 2 [1] [%]","DLD1 TCF c2 BrightGlo % Inhibition, 20 uM, replicate 3 [1] [%]","DLD1 TCF c2 BrightGlo % Inhibition (TCF/LEF luciferase reporter; 0.625 uM by plate map, replicate 1) [2] [%]","DLD1 TCF c2 BrightGlo % Inhibition (TCF/LEF luciferase reporter; 0.625 uM by plate map, replicate 2) [2] [%]",also measured
"Ac-[αAllylPro]D[tBuAla][B5(3)]D[TfeGA]AAFF[PyrS2″]F[Bta]Q-NH2 (staple 1-4, 4-11) [I-988]",11,10.7,15.5,5.7,22.3,21.2,13.3,28.8,33.4,32,57.8,62,61.5,72,76.2,78.1,81.3,81.9,–,–,–
"Ac-[αAllylPro]D[tBuAla][B5(4)]DDAAFN[PyrS2″][Phe(2-Cl)][Bta][Leu(ol)] (staple 1-4, 4-11) [I-1080]",–,–,–,–,–,–,–,–,–,–,–,–,–,–,–,–,–,–,20.2,13.7,"DLD1 TCF c2 BrightGlo % Inhibition (TCF/LEF luciferase reporter; 0.625 uM by plate map, replicate 3) [2]: 15.3%; DLD1 TCF c2 BrightGlo % Inhibition (TCF/LEF luciferase reporter; 1.25 uM by plate map, replicate 1) [2]: 16%; DLD1 TCF c2 BrightGlo % Inhibition (TCF/LEF luciferase reporter; 1.25 uM by plate map, replicate 2) [2]: 13.8%; DLD1 TCF c2 BrightGlo % Inhibition (TCF/LEF luciferase reporter; 1.25 uM by plate map, replicate 3) [2]: 12.3%; DLD1 TCF c2 BrightGlo % Inhibition (TCF/LEF luciferase reporter; 2.5 uM by plate map, replicate 1) [2]: 14.6%; DLD1 TCF c2 BrightGlo % Inhibition (TCF/LEF luciferase reporter; 2.5 uM by plate map, replicate 2) [2]: 19.8%; DLD1 TCF c2 BrightGlo % Inhibition (TCF/LEF luciferase reporter; 2.5 uM by plate map, replicate 3) [2]: 7.9%; DLD1 TCF c2 BrightGlo % Inhibition (TCF/LEF luciferase reporter; 5 uM by plate map, replicate 1) [2]: 24.9%; DLD1 TCF c2 BrightGlo % Inhibition (TCF/LEF luciferase reporter; 5 uM by plate map, replicate 2) [2]: 31%; DLD1 TCF c2 BrightGlo % Inhibition (TCF/LEF luciferase reporter; 5 uM by plate map, replicate 3) [2]: 24.4%; DLD1 TCF c2 BrightGlo % Inhibition (TCF/LEF luciferase reporter; 10 uM by plate map, replicate 1) [2]: 42.4%; DLD1 TCF c2 BrightGlo % Inhibition (TCF/LEF luciferase reporter; 10 uM by plate map, replicate 2) [2]: 42.2%; DLD1 TCF c2 BrightGlo % Inhibition (TCF/LEF luciferase reporter; 10 uM by plate map, replicate 3) [2]: 38.1%; DLD1 TCF c2 BrightGlo % Inhibition (TCF/LEF luciferase reporter; 20 uM by plate map, replicate 1) [2]: 51.4%; DLD1 TCF c2 BrightGlo % Inhibition (TCF/LEF luciferase reporter; 20 uM by plate map, replicate 2) [2]: 56.9%; DLD1 TCF c2 BrightGlo % Inhibition (TCF/LEF luciferase reporter; 20 uM by plate map, replicate 3) [2]: 51.8%"
"Ac-[αAllylPro]D[tBuAla][B5″]D[TfeGA]AAFN[PyrS2(3)][3Thi][Bta]Q-NH2 (staple 1-4, 4-11) [I-762]",14.5,18.6,9.3,12.9,16.9,5.5,12.9,17.4,11.9,28.2,45.2,44.6,56.8,70.2,65.6,75.7,81.9,78.7,–,–,–
"Ac-[αAllylPro]D[tBuAla][B5(3)]DDAAFN[PyrS2″][Phe(2-Cl)][Bta]-Alaol (staple 1-4, 4-11) [I-1081]",–,–,–,–,–,–,–,–,–,–,–,–,–,–,–,–,–,–,9.2,7.1,"DLD1 TCF c2 BrightGlo % Inhibition (TCF/LEF luciferase reporter; 0.625 uM by plate map, replicate 3) [2]: 11.5%; DLD1 TCF c2 BrightGlo % Inhibition (TCF/LEF luciferase reporter; 1.25 uM by plate map, replicate 1) [2]: 0.8%; DLD1 TCF c2 BrightGlo % Inhibition (TCF/LEF luciferase reporter; 1.25 uM by plate map, replicate 2) [2]: 2.4%; DLD1 TCF c2 BrightGlo % Inhibition (TCF/LEF luciferase reporter; 1.25 uM by plate map, replicate 3) [2]: 5.4%; DLD1 TCF c2 BrightGlo % Inhibition (TCF/LEF luciferase reporter; 2.5 uM by plate map, replicate 1) [2]: 4.5%; DLD1 TCF c2 BrightGlo % Inhibition (TCF/LEF luciferase reporter; 2.5 uM by plate map, replicate 2) [2]: 7.9%; DLD1 TCF c2 BrightGlo % Inhibition (TCF/LEF luciferase reporter; 2.5 uM by plate map, replicate 3) [2]: 15.2%; DLD1 TCF c2 BrightGlo % Inhibition (TCF/LEF luciferase reporter; 5 uM by plate map, replicate 1) [2]: 17.5%; DLD1 TCF c2 BrightGlo % Inhibition (TCF/LEF luciferase reporter; 5 uM by plate map, replicate 2) [2]: 23.8%; DLD1 TCF c2 BrightGlo % Inhibition (TCF/LEF luciferase reporter; 5 uM by plate map, replicate 3) [2]: 31%; DLD1 TCF c2 BrightGlo % Inhibition (TCF/LEF luciferase reporter; 10 uM by plate map, replicate 1) [2]: 45.6%; DLD1 TCF c2 BrightGlo % Inhibition (TCF/LEF luciferase reporter; 10 uM by plate map, replicate 2) [2]: 49.8%; DLD1 TCF c2 BrightGlo % Inhibition (TCF/LEF luciferase reporter; 10 uM by plate map, replicate 3) [2]: 55.3%; DLD1 TCF c2 BrightGlo % Inhibition (TCF/LEF luciferase reporter; 20 uM by plate map, replicate 1) [2]: 67.2%; DLD1 TCF c2 BrightGlo % Inhibition (TCF/LEF luciferase reporter; 20 uM by plate map, replicate 2) [2]: 69.3%; DLD1 TCF c2 BrightGlo % Inhibition (TCF/LEF luciferase reporter; 20 uM by plate map, replicate 3) [2]: 72.3%"
"Ac-[αAllylPro]D[tBuAla][B5(3)][3Thi][TfeGA]AAFN[PyrS2″]D[Bta]Q-NH2 (staple 1-4, 4-11) [I-1001]",-1.5,9.3,4.5,-7,-2.8,6.1,-8,-7.6,-5,-6.7,-6.7,-0.7,-3.6,-4.8,-7.4,-1.2,7.5,3.5,–,–,–

# From patent US20240116985A1 (published 2024)
